According to IntAct's records for PubMed 30458687:

Experiments:
apoa1_human APOA1 [1] = molecular target: apoa1_human APOA1 (UniProt P02647)
apoa1_human APOA1 [2] = molecular target: apoa1_human APOA1 (UniProt P02647); remark: listed apart in the source

apoa1_human APOA1, sequence (P02647 whole entry): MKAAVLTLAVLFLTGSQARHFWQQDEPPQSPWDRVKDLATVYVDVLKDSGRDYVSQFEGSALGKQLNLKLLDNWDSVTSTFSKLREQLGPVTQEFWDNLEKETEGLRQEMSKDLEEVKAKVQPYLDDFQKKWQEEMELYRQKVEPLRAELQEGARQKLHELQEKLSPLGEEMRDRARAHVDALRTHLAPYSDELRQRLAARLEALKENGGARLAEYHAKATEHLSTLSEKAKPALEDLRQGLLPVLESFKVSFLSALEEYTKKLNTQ

Substance: Phospholipid-transporting ATPase ABCA1 (Homo sapiens), O95477 K939M;K1952M
- effect of a mutation on the interaction (apoa1_human APOA1 [1]): disrupting interaction strength
- effect of a mutation on the interaction (apoa1_human APOA1 [2]): disrupting interaction strength
